Laboratory results taken from patent publication US20200270588A1, “GLUCOSYL TRANSFERASE POLYPEPTIDES AND METHODS OF USE” (Syngenta Participations AG, priority 2017, published 2020).
Numbering of substitutions follows the chain as printed. Names and notes keep the numbering of the source.

B1: F19M: bx9 SEQ ID NO:1 mutant (protein)
chain: MASSRTGAGAGGRVVVFPMPFQGHFNPVMRLARALHARGLAITVFHSGALDPADYPADYRFVPVTVEADPKLLASEDIAAIVTTLNASCDAPFRARLSALLAAEGRDSVRCVFTDVSWNAVLTASSDLGVPALGMMTASAASLRDYMAYRTLIDKGYLPVKEERKEDPVPELPPYLVKDLLRVDTSDLEEFAELLARTVTAARRASGLIFNTFPLIETDTLAEIHKALSVPVFAVAPLNKLVPTATASLHGVVQADRGCLQWLDTQQPGSVLYVSFGSMAAMDPHEFVELAWGLADSKRPFVWVVRPNLIRGFESGALPDGVEDEVRGRGIVVAWAPQEEVLAHPAVGGFLTHNGWNSTVEAISEGVPMVCCPRHGDQFGNMRYVCDVWKVGTELVGEQLERGQVKAAIDRLFGTKEGEEIKERMKEFKIAAAKGIGIGVDVDETASPRTDLTDLVDLIKSF
modifications: Zea mays
B2: V199M: bx9 SEQ ID NO:1 mutant (protein)
chain: B1 chain with M19F, V199M
modifications: Zea mays
B3: T220W: bx9 SEQ ID NO:1 mutant (protein)
chain: B1 chain with M19F, T220W
modifications: Zea mays
B4: A202S: bx9 SEQ ID NO:1 mutant (protein)
chain: B1 chain with M19F, A202S
modifications: Zea mays
B5: A202T: bx9 SEQ ID NO:1 mutant (protein)
chain: B1 chain with M19F, A202T
modifications: Zea mays
B6: L143Y: bx9 SEQ ID NO:1 mutant (protein)
chain: B1 chain with M19F, L143Y
modifications: Zea mays
B7: T220F: bx9 SEQ ID NO:1 mutant (protein)
chain: B1 chain with M19F, T220F
modifications: Zea mays
B8: L143M: bx9 SEQ ID NO:1 mutant (protein)
chain: B1 chain with M19F, L143M
modifications: Zea mays

Tests used:
[1] = UDP luminescence plate assay of E. coli extracts, saturation mutants of SEQ ID NO: 1, herbicide V; type: biochemical, Zea mays; conditions: improvement factor relative to w/t bx9 = 1.0, rounded to nearest 0.5; extract activity basis; compound V
[2] = UDP luminescence plate assay of E. coli extracts, mutants of SEQ ID No: 1, 2 mM metribuzin; type: biochemical, Zea mays; conditions: for SIGNAL: metribuzin signal of mutant divided by the signal of w/t bx9: relative to bx9 w/t; for luminescence signal in the DMSO control: mutants of SEQ ID No: 1, DMSO in place of metribuzin (background UDP-glucose hydrolysis); for luminescence signal observed with 2 mM metribuzin: mutants of SEQ ID No: 1 in E. coli extracts, UDP luminescence; for RATIO of the metribuzin signal to the DMSO signal: 2 mM metribuzin vs DMSO control, same mutant
Outline: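 Extracts of E. coli BL21 DE3 expressing C-terminally His-tagged SEQ ID NO:1 variants incubated with 2 mM metribuzin; UDP formed read by UDP-Glo luminescence against a UDP standard curve, with optional 95 C stop. Mutants ranked by metribuzin/DMSO signal ratio and signal increase over wild-type bx9.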

Molecule	Preferred amino acid substitutions and (IF) based on RLU/min/ul [1]	SIGNAL: metribuzin signal of mutant divided by metribuzin signal of w/t bx9 ([2]; 2 mM metribuzin)	luminescence signal with metribuzin ([2]; 2 mM metribuzin, H24A null background 1.00E+05 not subtracted)	SIGNAL: metribuzin signal of mutant divided by the signal of w/t bx9 ([2]; 2 mM metribuzin)	luminescence signal in the DMSO control [2]	luminescence signal observed with 2 mM metribuzin ([2]; 2 mM metribuzin)	RATIO of the metribuzin signal to the DMSO signal [2]	Most Preferred amino acid substitutions and (IF) based on RLU/min/ul [1]
B1	M(1.0)	0.86	1.07E+05	0.99	1.92E+05	2.76E+05	–	–
B2	M,N(1.0)	–	–	0.92	2.53E+05	2.58E+05	1.02	–
B3	–	–	–	1.59	4.99E+05	4.44E+05	–	3.5
B4	S,I,C,M(1.0)	–	–	0.91	2.70E+05	2.53E+05	0.94	–
B5	T,I,V,L,F(1.5)	–	–	0.93	2.52E+05	2.61E+05	–	–
B6	M,Y(1.0)	–	–	1.06	2.77E+05	2.98E+05	–	–
B7	–	–	–	2.22	7.87E+05	6.21E+05	–	3.5
B8	M,Y(1.0)	–	–	1.02	2.74E+05	2.86E+05	1.04	–
